# The nanobody polyreactivity screen of Harvey et al. (2022)
# Test: yeast display, Sf9 membrane polyspecificity reagent, FACS + sequencing; frameworks hold sequencing errors
# Procedure, shortened: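 Synthetic nanobody libraries on Saccharomyces cerevisiae BJ5465 were galactose-induced for 36–48 hours, stained 1 hour at 4 °C with 10% biotinylated, detergent-solubilized Sf9 membrane reagent and enriched on streptavidin microbeads. FACS then separated cells into low and high (top ~1%) gates by anti-HA (expression) and streptavidin (reagent binding) fluorescence. Genes were colony-PCR amplified, MiSeq 2 × 250 sequenced and CDR-length filtered. A clone's polyreactivity label is that of its gate of origin.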
row,Sequence,polyreactivity (PSR sort gate)
1,QVQLVESGGGLVQAGGSLRLSAATGSTLAGKTMGWYRQASRKERELVAAINDSGGSTYYADSVKGRFTISRDNAKNSVYLQMNSLKPEDTAVYYCNADGYAYIEDGYDYWGQCTQVTVSS,low polyreactivity
2,QVQLVESGGGLVQAGGSLRLSCAAAGTYKYYAMGWYRQAPGKERELVAASNRGGSTNYADSVKGRFTISRDNAKNTVYLQMNSLKPEDTAVYYCAAERWYVRGRHYFYWGQGTQVTVSS,high polyreactivity
3,QVQLVESGGGLVQAGGSLRLSCAACGITFLSNAMGWYRQAPGKERELVAAITTSGGTTYADSVKGRFTISRDNAKNTVYLQMNSLKPEDTAVYYCNAVGYTPRKPSKFDYWGQGTQVTVSS,low polyreactivity
4,QVQLVESGGGLVQAGGSLRLSCAACGRILWTYAMGLYRQAPGKERELVADISRTGSTNYADSVKGRFTISRDNAKNTVYLQMNSLKPEDTAVYYCAADRWAHTHRLGYWGQGTQVTVSS,low polyreactivity
5,QVQLVESGGGLVQAGGSLRLSCAACGRTFYQNAMGWYRQAPGKERELVAAISRSGGSTYYADSVKGRFTISLYNAKNTVYLQMNSLKPEDTAVYFCAADPRSYGGGYDYWGQGTQVTVSS,high polyreactivity
6,QVQLVESGGGLVQAGGSLRLSCAACGSIFLKYVMGWYRQAPGKERELVAAISFRSGSTYYADSVKGRFTISRDNAKNTVYVQMNSLKPEDTAVYYCAASWTPRYLGFDHWGQGSQVTVSS,high polyreactivity
7,QVQLVESGGGLVQAGGSLRLSCAACGSISVYNAMGWYRQAPGKERELVAAISWSGGRTSYADSVKGRFTISRDNAKNTVYLQMNSLKPEDTAVYYCAADELTVMWDEDYWGQGTQVTVSS,low polyreactivity
8,QVQLVESGGGLVQAGGSLRLSCAAPGSTFVYYAMGWFRQAPGKEGELVAAISRSGGHTYYADSVKGRFTISRDKAKKTVYLQMNSLKPEETAVYYCAARSYGVQYYYWGQRTQVTVSS,high polyreactivity
9,QVQLVESGGGLVQAGGSLRLSCAASAFTFRRYVKGWYRQAPGKERELVAAISSGGRTNYADSVKGRFTISRYNAKNTVYLQMNSLKPEDTAVYYCAADRYSSYYVLYDYWGQGTQVSVSS,high polyreactivity
10,QVQLVESGGGLVQAGGSLRLSCAASAFTFYYYDMGWYRQAPGKERELVAAIDTSDGSTYYADSVKGRFTISRDNAKNTVYLQMNSLKPEDTAVYYCSAEVDWVPFLLVYWGQGTQVTVSS,low polyreactivity
11,QVQLVESGGGLVQAGGSLRLSCAASAFYTNAMGWYRQAPGKERELVAAITSDGDSTYYADSVKGRFTISRDNAKNTVYLQMNSLKPEDNAVYYCAADAVPTSVVDWGFYGMYWGQGTQVTVSS,low polyreactivity
12,QVQLVESGGGLVQAGGSLRLSCAASALTFHFNAMGWYRQAPGKERELVASITSSGGSTYYADSVKGRFTISRDNAKNTVSLQMNSLKPEDTAVYYCNAEGSSVLTGYWGYPPYWDTYDYSGQGTQVTVSS,low polyreactivity
13,QVQLVESGGGLVQAGGSLRLSCAASANIFKPNAMGWYRQAPGKERELVAAISDSGGNTYYADSVKGRFTISRDNAKNTVYLQMNSLKPEDTAVYYCARRYYWYSGRYDYWGQGTQVTVSS,high polyreactivity
14,QVQLVESGGGLVQAGGSLRLSCAASARIFKLNAMGGYRQAPVKERELVAAINSGTRTYYADSVKGRFSISRDNAKNTVYLQMKSLKPEDTAVYYGAAEGVWWYSRYDYWGQGTQVTVSS,high polyreactivity
15,QVQLVESGGGLVQAGGSLRLSCAASARIFKTYAMGWYIQAPGKERELVATITWSGGSTYADSVKGRFTITRDNAKNTVYLQMNSLKPEDTAVYYCAAGRTYYSPGYRSYSGYDYWGQGTQVTLSS,high polyreactivity
16,QVQLVESGGGLVQAGGSLRLSCAASARIFVINAMGWYRQAPGKERELVADITWSGGSTYADSVKGRFTISRDNAKNTVYLQMYSLKPEDTAVYYCAAVTFVPRSTNGISLYDYWGQGTQVTVSS,high polyreactivity
17,QVQLVESGGGLVQAGGSLRLSCAASARIFVPYARGWYRQAPGKERELVAAIRKSGGSTYYADSVKGRFTISRDNAKNTVYLQMNSLKPDVTAVYYCAASTLGMVQTQPGKRKTYLYGYWGQGTQVTVSS,high polyreactivity
18,QVQLVESGGGLVQAGGSLRLSCAASARIFWRNTMGWSRQAPGKERELVAAINYSGGRTYYADSVQGRFTISRDKAKNTVYLQMNSLKPEDTAVFDCAATPPVATNGRYYYWGQGTQVTVSS,low polyreactivity
19,QVQLVESGGGLVQAGGSLRLSCAASARIFYPYAMGWYRQAPGKERELVAAINWIGGSTYYADSVKGRFTISRDNAKYTVYLQMNSLKPEDSAVYYCAASYWHRRYDYWGQGTQVTLSS,high polyreactivity
20,QVQLVESGGGLVQAGGSLRLSCAASARIIFRNAMGWYRQAPGKERELVAAITYSGGSTYYADSVKGRFTISRDNAKNTVYLQMNSLKPEDTAVYYCGAGYWFCYSRVTRYDYWGQGTQVTVSS,high polyreactivity
21,QVQLVESGGGLVQAGGSLRLSCAASARILAYYAMGWYRQAPGKERELVAAITSGGRTYYADSVKGRFTISRDNAKNTVYLQMNSLKPEDTAVYYGAVRWYPRYGSRYDYWGQGTQVTVSS,high polyreactivity
